Reference: patent publication US20030171537A1 (Bayer, published 2003)
Non-standard residues stand in square brackets, D forms with d.

Target: human wild-type p53 (full-length, in vitro translated from plasmid pGEMhump53wt) (human, UniProt P04637 1-393)
Experiment: cell-based or functional assay

Chain of human wild-type p53 (full-length, in vitro translated from plasmid pGEMhump53wt) (P04637 whole entry): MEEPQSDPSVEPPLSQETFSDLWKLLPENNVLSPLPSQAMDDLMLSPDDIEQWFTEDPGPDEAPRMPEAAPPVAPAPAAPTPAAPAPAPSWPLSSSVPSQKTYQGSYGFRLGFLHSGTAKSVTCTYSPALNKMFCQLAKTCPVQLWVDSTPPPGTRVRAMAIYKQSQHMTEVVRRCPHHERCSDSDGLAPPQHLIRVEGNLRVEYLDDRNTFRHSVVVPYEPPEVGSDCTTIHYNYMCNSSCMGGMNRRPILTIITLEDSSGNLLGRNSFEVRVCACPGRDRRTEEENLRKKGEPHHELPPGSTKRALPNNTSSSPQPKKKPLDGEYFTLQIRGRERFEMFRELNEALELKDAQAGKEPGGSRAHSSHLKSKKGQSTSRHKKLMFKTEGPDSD

activation of p53 DNA binding (gel shift), relative to 0.05 mM peptide p53p363-373: ~2 times
B1: cyclic peptide c[SRHKKa] (peptide)
peptide: cyclo(SRHKK[dA])
SMILES: C[C@H]1NC(=O)[C@H](CCCCN)NC(=O)[C@H](CCCCN)NC(=O)[C@H](Cc2c[nH]cn2)NC(=O)[C@H](CCCNC(=N)N)NC(=O)[C@H](CO)NC1=O
